Test results taken from publication PMC12915084, “A dsRNA Viral Transcriptional Regulator Evades Innate Immunity by Hijacking Host CoTranscription Factor DHX9”.

Legend:
DHX9 = DHX9 (UniProt Q08211 1-1270); assay: EMSA; shift at 20 nM DHX9; 5 nM R-loop; no ATP or Mg2+ listed in binding buffer; EMSA: 5 nM R-loop, 0.5% NP-40, 150 mM NaCl, 20 mM Tris-Cl pH 8.0, 0.5 mM EDTA, 37 °C 15 min; 6% native PAGE; conditions: protein: recombinant; tags: Flag; label: 5' Cy5.5 on RNA; three-strand R-loop, DNA duplex arms around an unpaired bubble; RNA nt 1-30 pair with ssDNA-2, 3' RNA overhang 30 nt
Sequence of DHX9 (Q08211 whole entry): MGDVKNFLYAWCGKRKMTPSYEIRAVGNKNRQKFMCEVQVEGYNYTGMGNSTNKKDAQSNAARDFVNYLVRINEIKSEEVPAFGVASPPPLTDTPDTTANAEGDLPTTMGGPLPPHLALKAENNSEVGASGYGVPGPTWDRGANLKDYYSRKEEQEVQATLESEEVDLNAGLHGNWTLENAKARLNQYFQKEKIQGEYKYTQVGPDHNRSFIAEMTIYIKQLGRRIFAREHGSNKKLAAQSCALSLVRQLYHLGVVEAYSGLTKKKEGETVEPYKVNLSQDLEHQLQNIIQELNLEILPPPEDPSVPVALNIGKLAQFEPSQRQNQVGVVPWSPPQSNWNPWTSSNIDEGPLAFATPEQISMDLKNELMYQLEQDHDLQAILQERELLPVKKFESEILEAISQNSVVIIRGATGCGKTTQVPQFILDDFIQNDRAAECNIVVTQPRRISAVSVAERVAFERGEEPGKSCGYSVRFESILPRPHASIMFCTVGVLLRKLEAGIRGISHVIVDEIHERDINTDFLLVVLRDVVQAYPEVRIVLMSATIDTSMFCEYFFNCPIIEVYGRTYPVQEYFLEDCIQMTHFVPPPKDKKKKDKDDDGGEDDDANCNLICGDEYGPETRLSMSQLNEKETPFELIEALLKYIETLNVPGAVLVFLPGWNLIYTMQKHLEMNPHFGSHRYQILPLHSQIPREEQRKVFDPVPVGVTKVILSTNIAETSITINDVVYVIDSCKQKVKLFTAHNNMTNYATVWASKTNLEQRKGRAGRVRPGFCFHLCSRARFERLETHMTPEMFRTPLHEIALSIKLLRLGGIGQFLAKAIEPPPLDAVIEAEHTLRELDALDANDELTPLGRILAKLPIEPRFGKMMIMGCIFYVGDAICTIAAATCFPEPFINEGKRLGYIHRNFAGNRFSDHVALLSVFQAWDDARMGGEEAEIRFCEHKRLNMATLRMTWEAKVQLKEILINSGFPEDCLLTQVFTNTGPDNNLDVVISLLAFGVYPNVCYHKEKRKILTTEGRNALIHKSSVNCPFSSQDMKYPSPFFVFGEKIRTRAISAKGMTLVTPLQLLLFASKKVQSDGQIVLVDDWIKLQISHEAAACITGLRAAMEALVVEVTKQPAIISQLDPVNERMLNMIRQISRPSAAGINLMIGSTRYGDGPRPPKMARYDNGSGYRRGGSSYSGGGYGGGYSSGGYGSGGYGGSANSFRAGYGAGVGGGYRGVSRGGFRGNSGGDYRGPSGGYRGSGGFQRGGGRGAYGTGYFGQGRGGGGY

[1] = biological target: T1, σ3 WT (REOV outer capsid protein) (Mammalian orthoreovirus, UniProt P07939 1-365); assay: EMSA; no shift at any σ3 concentration tested; 5 nM R-loop; without DHX9; EMSA: 5 nM R-loop, 0.5% NP-40, 150 mM NaCl, 20 mM Tris-Cl pH 8.0, 0.5 mM EDTA, 37 °C 15 min; 6% native PAGE; conditions: protein: recombinant; tags: Flag; label: 5' Cy5.5 on RNA; three-strand R-loop, DNA duplex arms around an unpaired bubble; RNA nt 1-30 pair with ssDNA-2, 3' RNA overhang 30 nt
T1 sequence: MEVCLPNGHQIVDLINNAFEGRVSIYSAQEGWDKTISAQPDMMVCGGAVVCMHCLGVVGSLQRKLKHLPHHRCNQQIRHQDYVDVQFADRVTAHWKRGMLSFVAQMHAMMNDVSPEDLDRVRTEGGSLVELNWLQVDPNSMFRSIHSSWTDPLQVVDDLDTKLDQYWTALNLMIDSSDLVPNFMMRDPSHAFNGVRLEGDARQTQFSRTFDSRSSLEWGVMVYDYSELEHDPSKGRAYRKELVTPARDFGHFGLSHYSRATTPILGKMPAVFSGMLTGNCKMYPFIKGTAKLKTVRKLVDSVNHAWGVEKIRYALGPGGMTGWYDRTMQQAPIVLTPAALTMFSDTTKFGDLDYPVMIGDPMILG

B1: R-loop substrate with RNA 3' overhang (mixed)
DNA 1: CATTGCATATTTAAAACATGTTGGATCCCACGTTGCATGCTGATAGCCTACTAGAGCTGTATGAATTCAAATGACCTCTTATCAAGTGAC
DNA 2: GTCACTTGATAAGAGGTCATTTGAATTCATGGCTTAGAGCTTAATTGCTGAATCTGGTGCTGGGATCCAACATGTTTTAAATATGCAATG
RNA: GCACCAGAUUCAGCAAUUAAGCUCUAAGCCGCUGACGGCUCGAUGCUGAUCGUAGCAUCG
binding result (DHX9): binds | binding result [1]: no binding
